Experimental findings from patent publication US20130064834A1 (published 2013) are described below.

Where a chain is given by its changes, count along the chain named.

T1: Chimeric protein #1 (mPro-hCat-mC-term-mmh) (mouse; human, UniProt Q80W65 35-694)
T1 chain: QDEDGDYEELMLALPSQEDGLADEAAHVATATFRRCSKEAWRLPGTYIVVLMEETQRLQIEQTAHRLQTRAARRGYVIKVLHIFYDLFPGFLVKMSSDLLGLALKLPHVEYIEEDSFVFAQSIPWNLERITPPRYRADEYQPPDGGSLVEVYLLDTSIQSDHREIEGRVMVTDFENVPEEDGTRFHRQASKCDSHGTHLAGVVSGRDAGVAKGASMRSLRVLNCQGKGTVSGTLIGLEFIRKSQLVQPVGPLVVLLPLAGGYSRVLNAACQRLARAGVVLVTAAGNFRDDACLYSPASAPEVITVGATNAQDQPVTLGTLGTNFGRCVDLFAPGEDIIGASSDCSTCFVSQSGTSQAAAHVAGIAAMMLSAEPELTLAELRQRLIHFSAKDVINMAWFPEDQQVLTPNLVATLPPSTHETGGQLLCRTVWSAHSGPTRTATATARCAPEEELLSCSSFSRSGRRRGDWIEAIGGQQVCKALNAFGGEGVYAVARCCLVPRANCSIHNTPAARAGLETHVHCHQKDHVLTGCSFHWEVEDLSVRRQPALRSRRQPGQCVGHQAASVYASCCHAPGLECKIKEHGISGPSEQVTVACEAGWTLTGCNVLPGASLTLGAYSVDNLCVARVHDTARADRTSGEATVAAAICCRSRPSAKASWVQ

T2: Chimeric protein #3 (mPro-mCat-hC-term-mmh) (mouse; human)
T2 chain: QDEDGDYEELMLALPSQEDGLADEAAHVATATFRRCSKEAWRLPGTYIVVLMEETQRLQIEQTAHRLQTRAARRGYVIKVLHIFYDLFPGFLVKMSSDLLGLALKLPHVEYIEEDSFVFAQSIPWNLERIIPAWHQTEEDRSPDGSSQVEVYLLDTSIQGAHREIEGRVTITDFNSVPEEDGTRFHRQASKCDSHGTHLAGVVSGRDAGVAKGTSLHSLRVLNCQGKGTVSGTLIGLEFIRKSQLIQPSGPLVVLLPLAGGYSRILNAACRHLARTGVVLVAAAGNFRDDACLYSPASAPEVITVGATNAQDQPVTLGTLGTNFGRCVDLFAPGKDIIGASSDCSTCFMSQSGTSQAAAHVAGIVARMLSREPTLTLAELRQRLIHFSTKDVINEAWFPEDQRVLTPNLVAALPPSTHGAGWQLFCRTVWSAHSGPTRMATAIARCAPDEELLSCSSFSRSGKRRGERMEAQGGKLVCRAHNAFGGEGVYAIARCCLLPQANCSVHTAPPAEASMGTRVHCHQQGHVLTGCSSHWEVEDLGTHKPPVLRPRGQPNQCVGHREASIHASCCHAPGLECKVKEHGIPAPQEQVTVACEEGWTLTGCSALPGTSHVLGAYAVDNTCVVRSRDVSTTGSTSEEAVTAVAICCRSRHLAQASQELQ

B1: H1H317P (antibody, V domains shown)
VH: EVQLVESGGGLVQPGGSLRLSCAVSGFTLSSYDMHWVRQPTGKGLEWVSAIGSTGDTYYPGSVKGRFTISRENAKNSLYLQMNSLRAGDTAVYYCAREGWDVPFDFWGQGTLVTVSS
VL: AIQMTQSPSSLSASVGDRVTITCRASQDIRNDLGWYQQKPGKAPKLLIYAASSLQSGVPSRFSGSGSGTDFTLTISSLQPEDFATYYCLQDYNYPWTFGQGTKVEIK
notes: Fully human antibody cloned from B cells, made in CHO cells
B2: H1H318P (antibody, V domains shown)
VH: QVQLQESGPGLVKPSETLSLTCTVSGDSINTYYWSWFRQPPGKGLEWIGYIYYSGTTNYNPSLKSRVTISIDTPRNQFSLKLISVTAADTAVYYCARERITMIRGVTLYYYSYGMDVWGQGTTVTVSS
VL: DIQMTQSPSFLSASVGDRVTITCWASQDISSYLAWYQQKPGIAPKLLIYAASTLQSGVPSRFGGSGSGTEFTLTISSLQPEDFATYYCQQLNSYPRTFGQGTKVEIK
notes: as for B1
B3: H1H320P (antibody, V domains shown)
VH: QVQLVQSGAEVKKPGASVKVSCKASGYTFTNYGISWVRQAPGQGLELMGWISGYNGNTNYAQELQARVTMTTDTSTSTAYMELRNLRSDDTAVYYCARDRVVVAAANYYFYSMDVWGQGTTVTVSS
VL: DVVMTQSPLSLSVTLGQPASISCRSSQSLVYSDGDTYLNWFQQRPGQSPRRLIYKVSNRDSGVPDRFSGSGSGTAFTLKISGVEAEDVGVYYCMQATHWPRTFGQGTKVEIK
notes: as for B1
B4: H1H321P (antibody, V domains shown)
VH: QITLKESGPTLVKPTQTLTLTCTFSGFSLITSGVGVGWIRQPPGKALEWLALIYWNGDKRYSPSLKSRLTITKDTSKNQVVLTMTNMDPVDTATYYCAHRITETSYYFYYGMDVWGQGTTVTVSS
VL: not shown
notes: as for B1
B5: H1H334P (antibody, V domains shown)
VH: B4 VH with T15S, I30S, G57S, I101H, T102D, E103S, T104S
VL: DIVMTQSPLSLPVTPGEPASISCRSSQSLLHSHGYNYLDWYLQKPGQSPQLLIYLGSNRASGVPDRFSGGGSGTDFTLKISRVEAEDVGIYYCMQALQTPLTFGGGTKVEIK
notes: as for B1
B6: H1H315P (antibody, V domains shown)
VH: QVQLVESGGGVVQPGRSLRLSCAASGFTFSSYGMHWVRQAPGKGLEWVAFIGFDGSNIYYGDSVRGRIIISRDNSENTLYLEMNSLRAEDTAVYYCAREKGLDWGQGTLVTVSS
VL: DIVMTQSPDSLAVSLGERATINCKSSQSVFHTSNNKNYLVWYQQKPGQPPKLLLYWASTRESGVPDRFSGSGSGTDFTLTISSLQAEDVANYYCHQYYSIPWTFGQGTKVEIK
notes: as for B1
B7: H1M300 (antibody, V domains shown)
VH: EMQLVESGGGLVQPGGSLRLSCAASGFTFSSHWMKWVRQAPGKGLEWVANINQDGSEKYYVDSVKGRFTISRDNAKNSLFLQMNSLRAEDTAVYYCARDIVLMVYDMDYYYYGMDVWGQGTTVTVSS
VL: not shown
notes: Hybridoma-derived chimeric antibody (human variable, mouse constant)
B8: H1M498 (antibody, V domains shown)
VH: EVQLVESGGGLVKPGGSLRLSCAASGFTFSSYSMDWVRQAPGKGLEWVSSISSSSSYIYYADSVKGRFTISRDTAKNSLYLQMNSLRDEDTAVYYCAREGSSRLFDYWGQGTLVTVSS
VL: DIQMTQSPSTLSASVGDRVTITCRASQSISSWLAWYQQRPGKAPKLLIYKASSLEGGVPSRFSGSGSGTEFTLTISSLQPEDFATYYCQQYNSYWYTFGQGTKLEIK
notes: as for B7
B9: H1M495 (antibody, V domains shown)
VH: EVQLVESGGGLVQPGRSLRLSCAASGFTFDDYAMHWVRQAPGKGLEWVSGINWNSGSIGYADSVKGRFTISRDNAKHSLYLQMNSLRPEDTALYYCVKEVTTGYYYGMDVWGQGTTVTVSS
VL: DIQLTQSPSFLSASVGDRVTITCWASQGISSYLAWYQKKPGKAPNLLIYDASTLQSGVPSRFSGSGSGTEFTLTLSSLQPEDFATYYCQQLNIYPFTFGPGTKVDIK
notes: as for B7

In the first test the target is T3, Human PCSK9-myc-myc-his (human, UniProt Q8NBP7 31-692).
T3 construct: also called hPCSK9-mmh; hPCSK9
Kind of test: SPR, mAb captured, 25C. For orientation: SPR reads the build-up and loss of mass on a sensor chip optically.
Method: (§1) Each selected antibody was captured at a flowrate of 2 μl/min for 6 min on a goat anti-human IgG polyclonal antibody surface created through direct chemical coupling to a BIACORE™ chip to form a captured antibody surface.
Consider B1, for which binding was put at a Kd of 30.4 nM and the T1/2 came out at 137 min.
The corresponding values for B2 are 0.972 nM and 59 min.
B3: binding was characterised by a dissociation constant (Kd) of 0.771 nM and the T1/2 turned out to be 28 min.
As for B4, the affinity, expressed as Kd, was 0.865 nM and the T1/2 came to 106 min.
B5 displayed a Kd of 3.75 nM and a T1/2 of 46 min.
In turn, B6 came in with a Kd of 0.129 nM and a T1/2 of 151 min.

A further test concerns the target T3, Human PCSK9-myc-myc-his. In words: SPR, mAb captured, 37C.
Method: as §1
B1: the affinity, expressed as Kd, was 18.6 nM and the T1/2 was 70 min.
Molecule B2 showed a Kd of 1.69 nM and a T1/2 of 28 min.
B3 showed a Kd of 1.93 nM and a T1/2 of 8 min.
The corresponding values for B4 are 3.36 nM and 23 min.
The corresponding values for B5 are 15.9 nM and 8 min.
Turning to B6, binding was put at a Kd of 0.413 nM and the T1/2 worked out at 35 min.

A further test deals with T4, tagged rhesus monkey (Macaca mulata) PCSK9 (rhesus monkey (Macaca mulata), UniProt A8T666 31-692).
T4 construct: also called mmPCSK9-mmh; mmPCSK9
T4 sequence (A8T666 31-692 limits assumed): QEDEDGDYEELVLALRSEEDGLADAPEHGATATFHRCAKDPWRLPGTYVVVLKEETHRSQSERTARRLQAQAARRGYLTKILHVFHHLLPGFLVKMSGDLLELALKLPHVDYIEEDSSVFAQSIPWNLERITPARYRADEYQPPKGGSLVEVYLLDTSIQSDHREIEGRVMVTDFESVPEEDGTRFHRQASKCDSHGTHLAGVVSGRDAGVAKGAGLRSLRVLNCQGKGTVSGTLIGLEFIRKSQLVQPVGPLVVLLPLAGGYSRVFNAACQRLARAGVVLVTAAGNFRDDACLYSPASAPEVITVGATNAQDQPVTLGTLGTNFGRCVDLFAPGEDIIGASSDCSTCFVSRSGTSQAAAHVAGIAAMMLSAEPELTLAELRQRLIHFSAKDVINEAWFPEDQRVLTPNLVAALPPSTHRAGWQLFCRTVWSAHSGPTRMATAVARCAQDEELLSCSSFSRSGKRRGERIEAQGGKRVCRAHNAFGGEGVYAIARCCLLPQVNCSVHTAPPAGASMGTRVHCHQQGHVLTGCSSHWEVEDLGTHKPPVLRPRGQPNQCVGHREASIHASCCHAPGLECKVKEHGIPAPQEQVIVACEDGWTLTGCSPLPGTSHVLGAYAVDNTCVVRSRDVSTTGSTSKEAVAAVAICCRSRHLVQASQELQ
Kind of test: SPR, 25C.
In turn, B7 returned a T1/2 of 76 min and a koff of 0.000152 s⁻¹.
The like results for B2 were, in that order, 3 min and 0.00369 s⁻¹.
In turn, B3 showed a T1/2 of 36 min and a koff of 0.000317 s⁻¹.
For B5, the T1/2 stood at 1 min and the off-rate constant (koff) was 0.00806 s⁻¹.
B6 displayed a T1/2 of 51 min and a koff of 0.000229 s⁻¹.

The target in another test is Chimeric protein #2 (hPro-mCat-mC-term-mmh) (human; mouse, UniProt Q80W65 19-694). Kind of test: ELISA, mAb coated, 1.2 nM antigen. (In general: In an ELISA, binding on a coated surface is turned into a signal by an enzyme label.)
From the text: (§2) After 1 hr binding at RT, the plate was washed and bound test protein detected using HRP-conjugated anti-myc polyclonal antibody (++=OD>1.0; +=OD 0.4-1.0; −=OD<0.4).
As to B7, the OD is 0.4 to 1 od.
Molecule B2 showed an OD of less than 0.4 od.
B8 gave an OD of less than 0.4 od.
Same read-out and setting: the same measure for B9: less than 0.4 od; for B3: more than 1 od; for B5: less than 0.4 od.

The target in another test is T5, mouse PCSK9, myc-myc-his tagged (mouse, UniProt Q80W65 35-694).
T5 construct: also called mPCSK9-mmh; mPCSK9
Kind of test: ELISA, mAb coated, 1.2 nM antigen.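 Also: antigen allowed to bind for 1 h at room temperature, then captured protein revealed with an HRP-linked polyclonal anti-myc antibody and read as optical density.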
From the text: as §2
The molecule B7 yielded an OD of less than 0.4 od.
Same read-out and setting: then B2, with less than 0.4 od; and B8, with less than 0.4 od; and B9, with less than 0.4 od.
For B3, the OD was less than 0.4 od.
B5: the OD is less than 0.4 od.

The target in a further test is T1, Chimeric protein #1 …. In words: ELISA, mAb coated, 1.2 nM antigen.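 Also: antigen allowed to bind for 1 h at room temperature, then captured protein revealed with an HRP-linked polyclonal anti-myc antibody and read as optical density.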
From the text: as §2
Regarding B7, the OD is more than 1 od.
On the same count and under the same terms, the same measure for B2: more than 1 od; for B8: less than 0.4 od; for B9: less than 0.4 od.
Take B3: the OD is less than 0.4 od.
As to B5, the OD was more than 1 od.

Another test has as its target T3, Human PCSK9-myc-myc-his. In words: ELISA, mAb coated, 1.2 nM antigen.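 Also: antigen allowed to bind for 1 h at room temperature, then captured protein revealed with an HRP-linked polyclonal anti-myc antibody and read as optical density.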
From the text: as §2
In turn, B7 yielded an OD of more than 1 od.
B2: the OD was more than 1 od.
Molecule B8 yielded an OD of more than 1 od.
B9: the OD is more than 1 od.
B3 registered an OD of more than 1 od.
Molecule B5 returned an OD of more than 1 od.

A further test deals with T2, Chimeric protein #3 …. In words: ELISA, mAb coated, 1.2 nM antigen.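 Also: antigen allowed to bind for 1 h at room temperature, then captured protein revealed with an HRP-linked polyclonal anti-myc antibody and read as optical density.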
From the text: as §2
In turn, B2 came in with an OD of less than 0.4 od.
Turning to B8, the OD fell in the range of 0.4 to 1 od.
Molecule B9 registered an OD of more than 1 od.
With B3, the OD was less than 0.4 od.
Same read-out and setting: then B5, with less than 0.4 od.

Another test concerns the target T6, hPCSK9(D374Y)-mmh (human, UniProt Q8NBP7 31-692).
T6 construct: also called hPCSK(D374Y)-mmh
Kind of test: ELISA, mAb coated, 1.2 nM antigen.
From the text: as §2
As to B7, the OD was more than 1 od.
For the molecule B2, the OD was more than 1 od.
B8 yielded an OD of more than 1 od.
In turn, B9 had an OD of more than 1 od.
Regarding B3, the OD was more than 1 od.
In turn, B5 yielded an OD of more than 1 od.

For a further test, the target named is T3, Human PCSK9-myc-myc-his. In words: SPR, mAb captured, 25C. This is another data set of the same source.
Method: (§3) Each antibody was captured at a flow rate of 4 μl/min for 90 sec on a goat anti-mouse IgG polyclonal antibody surface created through direct chemical coupling to a BIACORE™ chip to form a captured antibody surface.
On to B7, for which the affinity, expressed as Kd, was 0.399 nM and the T1/2 was found to be 170 min.
The corresponding values for B8 are 6.4 nM and 30 min.
For the molecule B9, the affinity, expressed as Kd, was 0.44 nM and the T1/2 was found to be 222 min.

The next test concerns the target T3, Human PCSK9-myc-myc-his. Kind of test: SPR, mAb captured, 37C. This is another data set of the same source.
Method: as §3
The molecule B7 yielded a Kd of 1.51 nM and a T1/2 of 32 min.
In turn, B8 displayed a Kd of 7.5 nM and a T1/2 of 14 min.
Consider B9, for which binding was put at a Kd of 7.5 nM and the T1/2 turned out to be 19 min.

For orientation: Kd means the free concentration of one partner at which half of the binding sites on the other are occupied at equilibrium, for simple one-to-one binding. As a reminder, the koff is the rate constant with which the complex falls apart.
